From the supplement of paper PMC9170038

Test system: MS2 coat protein
Assay: apparent KD of MS2 coat protein; designed switch direction (-1 OFF switch, 1 ON switch): -1; higher = weaker reporter binding
Outline: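 RNA switches sharing common flanks were transcribed by stalled E. coli RNA polymerase on Illumina chips. A doubling series of SNAP-549-labelled MS2 coat protein, from 0.7 or 1.5 nM to 3 µM, was applied in Tris-HCl pH 7.5 buffer with KCl, MgCl2, BSA, DTT, tRNA and Tween-20. Each step lasted 0.8–1.5 h at the bottom of the series and 10–20 min at the top. Normalised cluster fluorescence was curve-fitted, giving apparent KD as the per-design median over clusters.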

[1] = Eterna round: R95, input ligand: microRNA oligo, concentration not stated
[2] = input ligand: microRNA oligo, concentration not stated
[3] = Eterna round: R95, input ligand: FMN 200 uM
[4] = Eterna round: R95, input ligand: none

Sequence | apparent KD of MS2 coat protein [1] [nM] | apparent KD of MS2 coat protein (input ligand: FMN 200 uM) [nM] | apparent KD of MS2 coat protein (input ligand: none) [nM] | apparent KD of MS2 coat protein [2] [nM] | apparent KD of MS2 coat protein [3] [nM] | apparent KD of MS2 coat protein [4] [nM]
ACCUCACAUGAGGAUCACCCAUGUCAGGAUAUUCAAACAGGCGGAACUCCGCCUUCUCGAAGAAGGGACAUUAA [Ontebileza] (puzzle: Exclusion 1) | 16.6 | – | – | – | – | –
AUCCUACAUGAGGAUCACCCAUGUCAGGAUAUCCAAGAAAUAUGGCCGUAUCGGCCAUGGAGAAGGGAUAUGGG [jl-ex1-4.67 ViennaUCT mod] (Eterna round: R97, puzzle: Exclusion 1) | – | 26.5 | 115 | – | – | –
GCGCCAUCGUGAGAUGGCGUAACUACAUGAGGAUCACCCAUGUAGGAUAUCGAUUGCUUUGCAGUCGAGAAGGGCAAGGGAUAU [JL ENG3 3.87] (Eterna round: R96, puzzle: Exclusion NG 3) | – | 15.3 | 16.9 | 13.5 | – | –
CAGUACUGAGGAUAUACAUGAGGAUCACCCAUGUGUGUGAGAAUUGUGUGGUUGUUUUGUAGAAGGCGGUGCUG [JR_Ex3_Sub032] (Eterna round: R97, puzzle: Exclusion 3) | – | 326 | 346 | – | – | –
UCGAGGUCAGGAUAUACAUGAGGAUCACCCAUGUUGAGAGAAGGUAGGAAAAGAGUAGGUAGAAGGGACGAGAG [JR_Exclu3_Sub046] (puzzle: Exclusion 3) | 26.1 | – | – | – | – | –
UUUUACGGAGGAUAUACAUUUUUUUUAUUAUCCUCAUUAUUACAUGAGGAUCACCCAUGUAGAAGGCCGAUUUU [My Design] (puzzle: Exclusion 2) | 59.1 | – | – | – | – | –
CAGUAUUGAGGAUAUACAUGAGGAUCACCCAUGUGUUCCAGCUAGGAAACUAGCAAAAGUAGAAGGCAGUACUG [salish99_ex3_r3_085] (puzzle: Exclusion 3) | 21 | – | – | – | – | –
AUAUCCAGAGGAUAUCCGCACGGACACAUGAGGAUCACCCAUGUUUUCAUGAACGUUGCCGGAGAAGGCUGAGGAA [Eternabot (Original) Solution 10] (Eterna round: R97, puzzle: Exclusion 5) | – | 79.7 | 69.7 | – | – | –
CAAGAUUACUGAGGAUAUCCUAGUUUAUUUCAGGGAGAAGGCGGACUCAACAUGAGGAUCACCCAUGUAAGACGGGUACUAGAG [Ex NG1 #16] (Eterna round: R96, puzzle: Exclusion NG 1) | – | 94.7 | 78.4 | 71.1 | – | –
UGUUGUCGCGCAGGAUAUGAGGAUCACCCAUAUCAGGAUAUCGAAAGAGAAGUUCUGAGGAUCACCCAGAAGGGCGGGACAACU [pwkr exNG2 2xF5 2xFMN.33] (Eterna round: R96, puzzle: Exclusion NG 2) | – | 342 | 47.8 | 38 | – | –
GCAGCAUAGUUUACUGACUGUUACAUGAGGAUCACCCAUGUUCAGGAUAUGGUCUGGAUUACAGGCCAGAAGGGAACAAGCUGC [Eli exng3 - 030] (Eterna round: R96, puzzle: Exclusion NG 3) | – | 9.17 | 10.6 | 10.9 | – | –
GCACGGUAAUUCCAUAAAACCACAUGAGGAUCACCCAUGUCUCAGGAUAUGGUCUGGAUUACAGGCCAGAAGGGAGAGCCGUGC [Eli exng3 - 060] (Eterna round: R96, puzzle: Exclusion NG 3) | – | 10.4 | 13.3 | 8.88 | – | –
CUCGGACAUGAGGAUCACCCAUGUGAGGAUAUGGUGCUAUCGUCAUUAGACGAUUGCGUUAGAAGGCACAUUUU [LRO-Excl1-29] (puzzle: Exclusion 1) | 29.5 | – | – | – | – | –
CUGAGGUAGCGGUCCUAUGACAUGAGGAUCACCCAUGUACCUUGCUUCGAGCUAUUUGCUCGUCUUAUGAUUCUCGG [Mat - Sensor v3 - turn-off var 1 - JL Mod - D34] (puzzle: Sensor v3, turn-off variant 1) | 483 | – | – | – | 538 | 493
AACCUGAGGCAAAGCUUUAGGUGUACAUGAGGAUCACCCAUGUAGGAUAUGGUAGGCUUUGCUUACCAGAAGGACAUUGGCGUA [Mat - Exclusion NG 3 - Mod of JL - D42] (Eterna round: R96, puzzle: Exclusion NG 3) | – | 345 | 91.7 | 70.5 | – | –
CUCCGGCGUGUAGGAUAUGGAUCCGAUUAGGAUCCAGAAGGACAUGAGGAUCACCCAUGUACAUGUAAACAGUCAUCACCGGGC [salish99_ExNG1_r04_205] (Eterna round: R96, puzzle: Exclusion NG 1) | – | 131 | 21.4 | 18.2 | – | –
UCGUGGUUACUCUGCAGUUUCCUGAGCGGAGGCUCUUUGACAUGAGGAUCACCCAUGUUGCUUUUUGCUCAUCUUAA [JR_SV3TOV2_Sub041] (puzzle: Sensor v3, turn-off variant 2) | 15.8 | – | – | – | 14.2 | 12.4
AAAUUGGUAGAGGAUAUCGUACAGGAAACACUGCGAGAAGGCUGCACAUGAGGAUCACCCAUGUUCAGUUGCGA [EX6 #39] (Eterna round: R97, puzzle: Exclusion 6) | – | 17.3 | 14.5 | – | – | –
GAUUAUGCGAGCUUUAGGGACAUGAGGAUCACCCAUGUUCGUCUUAUUAGUCUGGGUGCACUAACAUACCUAAAUCU [JMF 37] (puzzle: Sensor v3, turn-off variant 1) | 81.4 | – | – | – | 135 | 153
UAUUAAUGCAAGGAUAUGCUUUUAAUUUUUUUUGCAGAAGGUGCAACAUGAGGAUCACCCAUGUUUCCGGGUAU [JR_E6_Sub032] (puzzle: Exclusion 6) | 25.7 | – | – | – | – | –
AUGUGCACGCUGCGGUCCUACAUGAGGAUCACCCAUGUGGUCUGGUGGCGUGGGUCGCCGGACUUGGCUCGUCUUGA [salish99_S_TOV1_R5_029] (Eterna round: R97, puzzle: Sensor, turn-off variant 1) | – | 17.9 | 18.2 | – | – | –
UGUACUAUGCGAGCUGACUUGCGUAGUGCAGCAAGUGAAACAUGAGGAUCACCCAUGUCCUCAUUUGCUCGUCUUAU [SL-sv3-2.01 JL mod] (puzzle: Sensor v3, turn-off variant 2) | 337 | – | – | – | 23.3 | 22
GUGUACAGAGGAUAUACAUGAGGAUCACCCAUGUGAAUAAGAUAGAAUAAGAUAAAGUGUAGAAGGCUGAGUGU [Excluse me!!! 1 - Jieux - Exclusion 3] (puzzle: Exclusion 3) | 35.7 | – | – | – | 28.8 | 38.4
AGAUGUAGAUACCGAUCCUACAUGAGGAUCACCCAUGUAGCUAGACGUGCGCGCGGCGCUCGUCAGACUACCAGUAG [salish99_TOv1_r3_093] (Eterna round: R96, puzzle: Sensor v3, turn-off variant 1) | – | 499 | 364 | 250 | – | –
CUGAGUAUAGGAUAUACAUGAGGAUCACCCAUGUAGAAACAAGGGUCUUACAACUAAAGUAGAAGGAUAUUUGG [ExFusion 7 - Jieux - Exclusion 3] (Eterna round: R97, puzzle: Exclusion 3) | – | 112 | 48.2 | – | – | –
